{
  "source": "patent US20230331798A1",
  "about": "(JECHO LABORATORIES, published 2023)",
  "key": {"[1]": {"target": "EPO receptor (Sinobiological, 10707-H08H) (UniProt P19235)", "experiment": "SPR, Biacore 8K, 25 C"}, "[2]": {"target": "T1, EPO receptor on TF-1 cells (human, UniProt P19235 25-508)", "T1 sequence (looked up)": "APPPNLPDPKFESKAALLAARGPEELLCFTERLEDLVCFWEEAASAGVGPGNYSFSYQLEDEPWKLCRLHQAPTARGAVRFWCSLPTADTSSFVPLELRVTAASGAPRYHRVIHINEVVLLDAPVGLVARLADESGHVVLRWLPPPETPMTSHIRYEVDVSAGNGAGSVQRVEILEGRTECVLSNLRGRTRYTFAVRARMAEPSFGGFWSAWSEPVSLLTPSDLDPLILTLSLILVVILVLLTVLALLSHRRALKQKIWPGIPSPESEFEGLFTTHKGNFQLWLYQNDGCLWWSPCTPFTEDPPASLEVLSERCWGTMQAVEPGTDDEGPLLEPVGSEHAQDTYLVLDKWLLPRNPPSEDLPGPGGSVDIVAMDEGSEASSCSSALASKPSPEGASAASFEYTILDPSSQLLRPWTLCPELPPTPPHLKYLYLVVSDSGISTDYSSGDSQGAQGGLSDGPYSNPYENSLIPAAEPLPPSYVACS", "experiment": "cell-based or functional assay"}},
  "data": [
    {"substance": "Darbepoetin (Darbe, lot #1078765A) (ligand)", "values": [
      {"measurement": "Kd", "setting": "[1]", "value": 8.35, "unit": "nM"},
      {"measurement": "EC50 (ng/ml), TF-1 cell proliferation (MTS, absorbance at 490 nM)", "setting": "[2]", "value": 11.4, "unit": "ng/mL"}
    ]}
  ]
}
